Entries after “also recorded” stand apart in the source; their conditions may differ.
Assays:
[1] = tested on: Huh7 human liver cell line; test: Luciferase expression from promoters in pAAV vector (with ITRs) in Huh7, forskolin or NKH477 induction; design: fold induction with forskolin: dose or concentration left out as unconfirmed
Procedure: The forskolin-inducible promoters RTV-017, RTV-019 and FORCYB1 were then used to drive expression of luciferase in a pAAV vector in the Huh7 human liver cell line. […] This experiment was performed to investigate the effect of the Inverted Terminal Repeats (ITRs) on the activity of the promoters.
The cells were seeded, transfected and induced as described above. Luciferase expression was measured as described above. In this experiment, the cells were induced by using 20 pM forskolin or 7.2 pM of the water soluble derivative NKH477.

[2] = tested on: C2C12 human muscle cell line; test: Luciferase expression from forskolin-inducible promoter, transient transfection in differentiated C2C12; assay type: cell-based
Procedure: (§1) Luciferase readouts were normalised to β-galactosidase to produce normalised relative luminometer units (RLUs). β-galactosidase containing pcDNA6 plasmid was used as internal control for transfection efficiency (Thermofisher, V22020). β-galactosidase activity was measured as per manufacturer's instructions (Mammalian βGalactosidase Assay Kit, 75707/75710, Thermo Scientific) using 25 μl of lysate. 25 μl of lysate was transferred into a microplate well and mixed with 25 μl of β-galactosidase Assay Reagent, equilibrated to room temperature. The mixture was incubated at 37° C. for 30 min and absorbance measured at 405 nm.
(§2) The forskolin-inducible promoters were initially used to drive expression of luciferase in the Huh7 human liver cell line and the C2C12 […]. The promoter constructs were used to drive expression of luciferase in the PM-RQ plasmid. The tested promoters were synthesised directly upstream of the ATG of PM-RQ plasmid.
• Media was prewarmed at 37° C. before use • C2C12 Complete Medium was used to grow the cells before differentiation. […]
C2C12 cells were maintained at 37° C., 5% CO2. […] Detachment was monitored under the microscope. • 4 ml C2C12 Complete Medium was added to inactivate Trypsin and the cells were transferred into a 15 ml tube. • The cells were centrifuged for 3 mins at 250 RCF at room temperature. • The supernatant was aspirated • The cells were resuspended by gentle pipetting up and down in 6 ml C2C12 Complete Medium • The cells were counted in a haemocytometer by using trypan blue (Thermofisher, 15250061) to determine the how many of the cells were alive. Trypan blue stains dead cells in blue and this allows for them not to be counted. The cells were resuspended into trypan blue in ration of 1:10, e.g. 10 μl cells and 90 μl trypan blue and counted using a haemocytometer. • The cells were seeded in complete medium at a density dependent on the passage number. […] The abovementioned densities are experimentally determined for efficient differentiation and transfection. […]

[3] = tested on: Huh7 human liver cell line; test: Luciferase expression from forskolin-inducible promoters, transient transfection of PM-RQ plasmid in Huh7; assay type: cell-based; design: luciferase activity following induction / fold induction of promoter (luciferase activity): dose or concentration left out as unconfirmed
Procedure: as §1, §2
• Huh7 cells which are a human liver cell line • DPBS: without CaCl2, without MgCl2 (Gibco, 14190-094) • DMEM (Sigma, D6546) • FBS (Sigma, F9665) • Pen-Strep (Sigma, P4333) • Promega Fugene-HD (E2311) • Forskolin (Sigma, F6886) • NKH477 (Sigma, N3290) • LARII (Dual Luciferase Reporter 1000 assay system, Promega, E1980) • 48 well plates flat bottom (353230, Corning) • Trypsin-EDTA (25200-056, Gibco) • T25 & T75 flask (353108, 353136, Corning) • 15 ml Falcon tubes (430791, Corning) • Stripettes 5 ml, 10 ml and 25 ml (4101,4051,4251, Corning)
Cells were seeded onto a 48 well plate at a density of 25,000 cells/300 μl
• On the day of transfection, DNA to be transfected was diluted to a 100 ng/μl stock solution. DNA to be transfected was the RTV-017, RTV-019 or CMV-IE promoter driving luciferase in the PM-RQ plasmid. • Per 48 well transfection, 45 ng of DNA was mixed with 4.1 μl of Optimem medium. • 0.5 μl of […] was mixed with 4 μl of Optimem medium. • These 2 solutions were mixed and incubated at room temperature for 15 minutes. • The final solution was then added to the well drop wise. • 3 hrs after transfection the inducer was added to the appropriate wells at the indicated concentration. Inducer was forskolin at […].
• 24 hrs after induction, the luciferase activity was measured as described below.
• Luciferase activity was measured using LARII (Dual Luciferase Reporter 1000 assay system, Promega, E1980) • 24 hours after induction, the media was removed from the cells • The cells were washed once in 300 μl of DPBS. • Cells were lysed using 100 μl of passive lysis buffer and incubated with rocking for 15 minutes. • The cell debris was pelleted by centrifugation of the plate at max speed in a benchtop centrifuge for 1 min • For luciferase, 10 μl sample was transferred into white 96-well plate and luminescence measured by injection of 50 μl of LARII substrate
RTV-017 and RTV-019 were transiently transfected into the human liver cell line Huh7 (FIG. 2). RTV-019 was transiently transfected into the […] C2C12 (FIG. 3). The activity of the promoters was assessed using luciferase activity. The luciferase activity was measured with and without the presence of […] forskolin.

B1: RTV-019: synthetic forskolin-inducible promoter, SEQ ID NO: 44; 3× ATF6, 4× AP1(1) and 3× HRE1 TFBS and CMV-MP (nucleic acid)
DNA: TGACGTGCTGATGATGCGTAGCTAGTAGTTGACGTGCTGATGATGCGTAGCTAGTAGTTGACGTGCTGATGATGCGTAGCTAGTAGTTGAGTCAGATGATGCGTAGCTAGTAGTTGAGTCAGATGATGCGTAGCTAGTAGTTGAGTCAGATGATGCGTAGCTAGTAGTTGAGTCAGATGATGCGTAGCTAGTAGTCTGCACGTAGATGATGCGTAGCTAGTAGTCTGCACGTAGATGATGCGTAGCTAGTAGTCTGCACGTAGATGATGCGTAGCTAGTAGTGCAGTTAGCGTAGCTGAGGTACCGTCGACGATATCGGATCCAGGTCTATATAAGCAGAGCTCGTTTAGTGAACCGTCAGATCGCCTAGATACGCCATCCACGCTGTTTTGACCTCCATAGAAGATCGCCACC
modifications: Synp-RTV-019
notes: 3× ATF6, 4× AP1(1) and 3× HRE1 TFBS and CMV-MP
With B1 the “fold induction with forskolin” value ([1]; Huh7) was 98 fold, the “luciferase activity without induction (background)” value ([1]; Huh7) was “low background activity” and the “fold induction with NKH477” value ([1]; Huh7, 7.2 pM NKH477) was 86 fold. The “luciferase activity following induction” value ([1]; Huh7, or 7.2 pM NKH477) was “high activity”, the “luciferase activity following induction” value ([2]; C2C12, 20 µM forskolin) was “high activity; also recorded: much higher activity” and the “luciferase activity without induction (background)” value ([2]; C2C12, before addition of forskolin) was “low background activity”. The “fold activation of promoter (luciferase activity)” value ([2]; C2C12 muscle cells, 20 µM forskolin, 24 hrs) was 6 fold, the “luciferase activity without induction (background)” value ([3]; Huh7, before addition of forskolin) was “low background activity” and the “luciferase activity following induction” value ([3]; Huh7, forskolin) was “high activity; also recorded: much higher activity”. The “fold induction of promoter (luciferase activity)” value ([3]; Huh7 liver cells, PM-RQ plasmid, forskolin, 24 hrs after induction) was 24 fold.

From patent publication US20230167458A1, “FORSKOLIN-INDUCIBLE PROMOTERS AND HYPOXIA-INDUCIBLE PROMOTERS” (ASKLEPIOS BIOPHARMACEUTICAL, INC., priority 2020, published 2023)
